Reference: patent publication US20120083036A1, “POLYSACCHARIDE TRANSFERASE” (ADELAIDE RESEARCH AND INNOVATION PTY LTD, priority 2006, published 2012)
Entries after “also recorded” stand apart in the source; their conditions may differ. Read-outs that look alike come from different tables or passages of the source.

Tests used:
HvXET5 [1] = molecular target: T1, HvXET5 (Hordeum vulgare, UniProt P93668); details: 1 nM HvXET5, pH 6
Description: The effect of Ca^2+ (as calcium chloride) and Mg^2+ (as magnesium sulfate), both in 0-15 mM concentration ranges, and of EDTA in a 0-20 mM concentration range, were determined by incubating 1 nM HvXET5 in 100 mM succinate buffer, pH 6. Enzyme activities were determined radiometrically as specified above, in triplicate and with a standard error of 8-10%.

HvXET5 [2] = molecular target: T1, HvXET5; experiment: pH optimum and enzyme stability of HvXET5; format: biochemical, barley (Hordeum vulgare L., cv. Clipper)
Description: The effect of pH on the activity of HvXET5 was determined by incubating 1 nM HvXET5 at 30° C. for 60 min in 50 mM citric acid/100 mM sodium dihydrophosphate (McIlvaine) buffers, pH 4.0-8.5 in the presence of 0.02% (w/v) BSA. […] The thermal stability of HvXET5 was determined after 15 min incubation at 0-70° C. The freeze/thaw stability of HvXET5 at 1 nM concentration was determined after three cycles of freezing (−80° C.) and thawing (4° C.), each of 3 min duration. Activity was subsequently measured at 30° C. in 100 mM ammonium acetate buffer, pH 6, containing 5 mM calcium chloride, without and with the addition of 10% (v/v) glycerol. Enzyme activity was determined radiometrically as specified above, and expressed as % activity relative to maximal activity. Assays were performed in triplicate and standard errors of 8-14% were observed.

HvXET5 [3] = molecular target: T1, HvXET5; experiment: Radiometric activity assay of HvXET5 with TXG and [3H]-labelled XXXGol; format: biochemical, barley (Hordeum vulgare L., cv. Clipper); details: purified enzyme; 30° C., pH 6.0, 0.3% (w/v) TXG
Description: The activity of HvXET5 during enzyme purification was determined radiometrically at 30° C. in 100 mM succinate or ammonium acetate buffers, pH 6.0, containing 5 mM calcium chloride, 0.3% (w/v) TXG and [^3H]-labelled xyloglucan-derived saccharide heptaitol (XXXGol, specific radioactivity 83 MBq·μmol^−1) (Fry, et al., Biochem. J. 282, 821-828, 1992) with approximately 30,000 dpm per reaction mixture. The radioactivity incorporated in reaction products was counted on 2×1 cm Whatman chromatography 3MM paper strips in plastic vials and using LSC6500 Scintillation counter (Beckman, Fullerton, USA) with approximately 48% efficiency for tritium, using EcoLume scintillation fluid, and with 70% quenching. Enzyme activity of HvXET5 during purification is expressed in katals, where 1 kat represents 1 mol of product formed per s; specific activity is expressed in pkat·mg^−1 protein.

[4] = substrate: OC[C@@H](O)[C@@H](O[C@@H]1O[C@H](CO[C@H]2OC[C@@H](O)[C@H](O)[C@H]2O)[C@@H](O[C@@H]2O[C@H](CO[C@H]3OC[C@@H](O)[C@H](O)[C@H]3O)[C@@H](O[C@@H]3O[C@H](CO[C@H]4OC[C@@H](O)[C@H](O)[C@H]4O)[C@@H](O)[C@H](O)[C@H]3O)[C@H](O)[C@H]2O)[C@H](O)[C@H]1O)[C@H](O)[C@@H](O)CO; experiment: Km and kcat constants of HvXET5; format: biochemical, barley (Hordeum vulgare L., cv. Clipper); details: other: acceptor substrate
[5] = concentrations between 5 and 15 mM

O=S(=O)([O-])[O-].[Mg+2] [Mg^2+, magnesium sulfate]
Inhibition of HvXET5 activity (HvXET5 [1]; [5]): 3-4%

[Ca+2].[Cl-].[Cl-] [Ca^2+, calcium chloride]
Stimulation of HvXET5 activity (HvXET5 [1]; [5]): 7-8%

ethylenediamine tetraacetic (disodium salt, dihydrate) [EDTA]
Inhibition of HvXET5 activity (HvXET5 [1]; 2-20 mM concentration ranges): approximately 30%

OCC(O)CO [glycerol]
Effect on HvXET activity after freeze-thawing cycles (HvXET5 [2]; 10% (v/v) addition): no effect

B1: HvXET5: barley xyloglucan xyloglucosyl transferase (XET isoenzyme) purified from extracts of 7-day-old barley seedlings (protein)
chain: MKATAGALLAVVATVLLRGIAAAPPRKPVDVPFEKNYVPTWAEDHIHYVNGGREVQLSLDKTTGTGFQTRGSYLFGHFSMHIKLVGGDSAGTVTAFYLSSQNSEHDEIDFEFLGNRTGQPYILQTNVFSGGKGDREQRIYLWFDPTKDYHSYSVLWNLYMIAFFVDDTPIRVFKNSKDLGVRYPFDQPMKLYSSLWNADDWATRGGREKTDWSKAPFVASYRGFHVDGCEASAEAKLCATQGARWWDQPEFQDLDAAQYRRLAWVRKEHTIYNYCTDRERYAAMSPECKRDRDV
modifications: Hordeum vulgare
notes: barley xyloglucan xyloglucosyl transferase (XET isoenzyme) purified from extracts of 7-day-old barley seedlings
Specific activity (HvXET5 [3]): 3,630 pkat·mg^−1
Activity at 0° C. relative to activity observed at 30° C. (HvXET5 [2]; 0° C.): approximately 40%
pH optimum (HvXET5 [2]; 30° C., McIlvaine buffers pH 4.0-8.5): 6.0
Freeze/thaw stability (HvXET5 [2]; several freeze-thaw cycles): did not lose activity
Storage stability (retention of activity) (HvXET5 [2]; stored at −20° C.): retained its activity for at least a year; also recorded: remained more or less constant for at least a year
Effect of buffer ionic strength on activity (HvXET5 [2]; succinate, ammonium acetate or sodium phosphate buffers, each at 50-200 mM): unaffected

B2: HvXET5 (Hordeum vulgare) (protein)
chain: APPRKPVDVPFEKNYVPTWAEDHIHYVNGGREVQLSLDKTTGTGFQTRGSYLFGHFSMHIKLVGGDSAGTVTAFYLSSQNSEHDEIDFEFLGNRTGQPYILQTNVFSGGKGDREQRIYLWFDPTKDYHSYSVLWNLYMIAFFVDDTPIRVFKNSKDLGVRYPFDQPMKLYSSLWNADDWATRGGREKTDWSKAPFVASYRGFHVDGCEASAEAKLCATQGARWWDQPEFQDLDAAQYRRLAWVRKEHTIYNYCTDRERYAAMSPECKRDRDV
Km [4]: 69·10^−6 M
